B1: Antibody 15, monomeric Fab (Fab, V domains shown)
VH: QVQLVQSGSELKKPGASVKVSCKASGYTFTSSGISWVRQAPGQGLEWMGEILPRSGYTNYNQGFTGRFVFSADKSVSTAYLQISSLKAEDTAVYYCARDFKGGRYAMDYWGQGTTVTVSS
VL: SIQMTQSPSSLSASVGDRVTITCQASQSVRYNVAWYQQKPGKAPKLLIYYASNRYEGVPSRFSGSGSGTDFTFTISSLQPEDIATYFCQHHYSSPLTFGGGTKLEIK
B2: Antibody 16, monomeric Fab (Fab, V domains shown)
VH: B1 VH
VL: B1 VL
notes: Same VH and VL as Antibody 15; The two antibodies differ only in the silencing mutations of the heavy chain constant region
B3: Antibody 12, monomeric Fab (Fab, V domains shown)
VH: B1 VH
VL: B1 VL with E56D
B4: Antibody 17, monomeric Fab (Fab, V domains shown)
VH: B1 VH with L52Q, F100K, K101G, G102P, G103A, A106T
VL: B1 VL
B5: Antibody 13, monomeric Fab (Fab, V domains shown)
VH: B1 VH with F100K, K101G, G102P, G103S, A106T
VL: B1 VL with E56D
B6: Antibody 18, monomeric Fab (Fab, V domains shown)
VH: B1 VH with L52Q, F100K, K101G, G102P, G103A, A106T
VL: B1 VL with V29I, F87Y
B7: anti-LPAR1 mAb with the VH of SEQ ID NO: 369 and VL of SEQ ID NO: 39 (antibody, IgG1, V domains shown)
VH: B1 VH with K101A, G102S, G103A
VL: B1 VL with E56T
notes: also called huVH4_Q61A97A99G104 (VH); 11 VL
B8: 63D8 (antibody, IgG1, V domains shown)
VH: EVKLLESGGGLVQPGGSLKLSCTASGFDFSRYWMSWVRQAPGKGLEWIGEINPSRSAINYSPSLKDKFIISRDNAKNTLYLQMSKVRSEDTALYYCARQGQRLRYGMDYWGQGTSVTVSS
VL: DIVMTQSPNFMSTSVGDRVSVTCRASQDVRTAVAWYQQKPGRSPKLLIYWTSTRHTGVPDRFTGSGSGTDYTLTISSVQAADLALYYCQQHYGTPLTFGAGTNLELK
notes: First found as a mouse hybridoma antibody
B9: Antibody 4 (antibody, IgG1, V domains shown)
VH: QVQLQQSGAELARPGASVKLSCKASGYTFTSSGISWVKQRTGQGLEWIGEIYPRSGYTNYNEKFKGKASLTADKSSRTAYMELRSLTSEDSAVYFCARDYDNSRYALDYWGQGTSVTVSS
VL: SIVMTQTPKFLPVSAGDRVTMTCKASQSVGYNVAWYQQKTGQSPKLLIYYASNRYTGVPDRFTGSGSGTDFTFTISSVQVEDLAVYFCQHHYSSPLTFGAGTKLELK

Substitutions are numbered along the chain they refer to.

T2 sequence (Q92633 whole entry): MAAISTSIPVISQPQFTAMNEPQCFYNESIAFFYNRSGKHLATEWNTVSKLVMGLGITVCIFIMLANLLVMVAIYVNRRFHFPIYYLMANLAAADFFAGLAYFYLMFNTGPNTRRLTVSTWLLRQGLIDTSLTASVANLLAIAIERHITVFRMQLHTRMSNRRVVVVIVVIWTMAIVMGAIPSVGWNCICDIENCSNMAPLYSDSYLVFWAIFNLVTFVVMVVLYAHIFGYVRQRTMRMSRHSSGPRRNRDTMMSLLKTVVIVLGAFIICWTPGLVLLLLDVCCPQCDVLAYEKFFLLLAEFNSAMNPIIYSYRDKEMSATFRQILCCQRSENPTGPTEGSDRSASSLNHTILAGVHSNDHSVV

The target in one experiment is T1, LPAR1 (on CHO cells; species not stated) (UniProt Q92633 1-364).
T1 construct: whole, on cells; also called CHO-LPAR1 cells
T1 sequence (Q92633 whole entry): as above
The experiment is described as follows: KinExA (method 1.14), monomeric Fab as constant binding partner, CHO-LPAR1 cells titrated. As for the experimental part:
The monomeric affinity constant KD for the interaction of antibodies with LPAR1 was determined using monomeric Fabs derived from the antibodies, using the KinExA method. In this method, the concentration of unbound antibody is measured against a range of antigen concentrations. Because KD=([Free antigen][Free antibody])/[Antigen-antibody complex], the value of KD can be deduced from these measurements. CHO-LPAR1 cells, the antigen source, are titrated in a background of constant binding partner (CBP, e.g. a Fab to be tested). Samples are gently rocked until equilibrium is reached. After incubation, cells are centrifuged and the free CBP is removed without disturbing the cell pellet. Beads coated with Anti-Species are used to capture a portion of free CBP. Captured CBP is detected with a fluorescently labelled Anti-CBP using the KinExA. The fluorescent signal is converted to a voltage signal that is directly proportional to the concentration of free CBP in the equilibrated sample.
Turning to B1, the Kd came to 0.824 nM. On the same count and under the same terms, to B2 belongs 0.824 nM; to B3, 1.28 nM. For B4, the Kd was 1 nM. On the same count and under the same terms, in the case of B5 it was 0.993 nM; in that of B6, 1.39 nM.

The next experiment has as its target T2, human LPAR1 (full length LPAR1, SEQ ID NO: 62) (human, UniProt Q92633 1-364).
T2 construct: Also used here for hLPAR1 in HEK293 cells (method 1.15); also called Lysophosphatidic Acid Receptor 1; LPA1
The experiment is described as follows: transient-transfection CIFAT (protocol 1.11) on CHO-K1 cells expressing human LPAR1 and alanine variants. How it is done:
(§1) CHO-K1 cells were seeded in clear 96-well plates at 20,000 cells per 200 μL full growth medium and incubated for 24 hours at 37° C. The following day, in a sterile tube, 0.0309 uL/well PEI (Generon, MW 160,000) was diluted into 10 uL/well transfection medium (DMEM supplemented with 2 mM L-glutamine and Penicillin-Streptomycin). The diluted PEI was added to 100 ng/well DNA encoding the target protein (human LPAR1 (SEQ ID NO: 62) unless otherwise stated), before vortexing immediately and incubating the mixture for 10 minutes at room temperature. 200 μL/well full growth medium was added to the PEI-DNA mixture, then medium in wells was taken off and 200 ul full growth medium/PEI/DNA mixture was added in the wells of the adherent cell plate. […] After washing and cell fixation with 4% PFA, the binding of the antibodies was detected using a goat anti-human Alexa Fluor 488 detection antibody (Invitrogen), incubated for 1 hour at room temperature. Fluorescence at 488 nm was measured using a BMG LABTECH ClarioStar plate reader and microscopy images were taken at 10× magnification.
Based on the epitope analysis presented in FIGS. 3 and 4, constructs were designed to test the important residues/interaction regions predicted in silico. […] CHO-K1 cells were transiently transfected with these plasm ids and the binding of an anti-LPAR1 mAb assessed to each of these receptor variants using protocol 1.11. […]
On to B7, for which the binding result is “binds”.

Another experiment addresses T2, human LPAR1 (full length LPAR1, SEQ ID …). The experiment is described as follows: transient-transfection CIFAT (method 1.11), fixed/permeabilised and live cells expressing LPAR1, microscopy. How it is done:
as §1, with “plate. The plate was incubated for 24 hours at 37° C. The next day, the medium was discarded and replaced with 200 μL full growth medium. The plate was incubated for 24 hours at 37° C.” for “plate.”, “magnification. […]” for “magnification.”
Take B8: the binding result is given as “binds”. On the same count and under the same terms, in the case of B9 it was “binds”.
